A short description of the data set: protein stability index of a GFP-peptide fusion (GPS, HEK-293T) (PSI 1-6); higher = more stable. The note with it: c terminus: a fixed tail appended.

± gives the standard deviation.
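Further: 24-mer peptide tiles fused after GFP, lentivirally expressed, FACS-sorted into six equal bins by GFP/DsRed ratio, decoded by Illumina sequencing, PSI is the read-weighted mean bin number.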

For WLSDWVTSYKVMVSNDSHTWVTVK [CPXM2], the protein stability index by setting is: (treatment: DMSO) 2.67 ± 1.5; (treatment: MLN4924 1 uM, 8 h) 2.56 ± 0.2.
In the same order, the values of DTILKYLKDHFSHLLGIPHSVLQI [IQUB] are 2.61 ± 0.43 and 2.63 ± 0.67.
In the same order, the values of VIDLFDEQGLSALHLAAQGRHAQT [RIPK4] are 3.05 ± 0.35 and 2.87 ± 0.14.
As for SLRIALSEHLKQRREVAKTVFCLV [EDNRA], the protein stability index is, setting by setting: (treatment: DMSO) 1.93 ± 0.34; (treatment: MLN4924 1 uM, 8 h) 2.26 ± 0.3.
For the sequence ITTPIIDTFKVPKEMFTVGCCVFA [SLC6A17], the protein stability index worked out at 2.67 ± 0.59 (treatment: DMSO) and 2.86 ± 0.55 (treatment: MLN4924 1 uM, 8 h).
In the same order, the values of GQSDFRPKNGRHAWIWHDCHRHYH [LOXL2] are 2.54 ± 0.29 and 3.03 ± 0.45.
Take GSGGGYGGGMRVCGFGGGAGSVFG [KRT15]: the protein stability index worked out at 2.18 ± 0.29 (treatment: DMSO) and 2.34 ± 0.22 (treatment: MLN4924 1 uM, 8 h).
Consider SCSQNLLITQQIIPVLYCMVFIAG [P2RY14], for which the protein stability index is, setting by setting: (treatment: DMSO) 3.03 ± 0.58; (treatment: MLN4924 1 uM, 8 h) 2.87 ± 0.73.
In the same order, the values of GWILIDRCGKHFGTILNYLRDGAV [KCTD10] are 3.08 ± 0.41 and 2.38 ± 0.52.
Turning to IVIQTYYRQWHAKIFVENLRRQKS [IQUB], the protein stability index is 2.453 ± 0.011 (treatment: DMSO) and 3.12 ± 0.52 (treatment: MLN4924 1 uM, 8 h).
In the same order, the values of SGLFNHRGIHNIQKRYHCKECGKV [ZSCAN9] are 3.08 ± 0.41 and 3.13 ± 0.35.
Consider CTSRIFVQKSIYSEFLKRFVEATR [ALDH8A1], for which the protein stability index runs as follows: (treatment: DMSO) 2.36 ± 0.52; (treatment: MLN4924 1 uM, 8 h) 2.34 ± 0.5.
SIYDNVPGSILYSSSGDLADLENE [DLC1]: the protein stability index came out at 4.843 ± 0.034 (treatment: DMSO) and 4.75 ± 0.12 (treatment: MLN4924 1 uM, 8 h).
Take KDLTEYLKVRSHDPEEAIRHDVIV [PDS5B]: the protein stability index reads like this: (treatment: DMSO) 3.26 ± 0.38; (treatment: MLN4924 1 uM, 8 h) 3.39 ± 0.14.
On to RVDPTRVNEFGMSGEDPTAAAPVA [CLPTM1], for which the protein stability index reads like this: (treatment: DMSO) 4.98 ± 0.099; (treatment: MLN4924 1 uM, 8 h) 5.02 ± 0.2.
In the same order, the values of SDQDPRVRTAAIKAMLQLHERGLK [INTS4] are 3.67 ± 0.31 and 3.79 ± 0.39.
In the same order, the values of KYNSARADFEQKMLDSALRFQAME [FCHO1] are 3.5 ± 0.074 and 3.48 ± 0.27.
Consider PPVVAHYDMSDTNSDPEVVNVDNL [C18orf25], for which the protein stability index was found to be 5.43 ± 0.18 (treatment: DMSO) and 5.46 ± 0.31 (treatment: MLN4924 1 uM, 8 h).
Take ASAPTYPSLYSSYHQGCLVNPTGN [NANOGP8]: the protein stability index by setting is: (treatment: DMSO) 3.29 ± 0.19; (treatment: MLN4924 1 uM, 8 h) 3.44 ± 0.17.
In the same order, the values of SPLAADPACLGQPHTPGKPTSSCT [FOXJ1] are 4.95 ± 0.17 and 4.89 ± 0.2.
On to AVYDGSSSVEDLKAKFCSTVANDV [NETO1], for which the protein stability index worked out at 4.03 ± 0.19 (treatment: DMSO) and 4.17 ± 0.31 (treatment: MLN4924 1 uM, 8 h).
In the same order, the values of LTGLQLKLGPALKIYEYHVKPLQT [SAMD13] are 2.26 ± 0.29 and 2.47 ± 0.42.
In the same order, the values of RNLARSQSVKMKDKLKIDLLPDGR [TAF7L] are 4.09 ± 0.28 and 4.25 ± 0.2.
In the same order, the values of EGNQKGEQATSLAILRVIRLVRVF [KCNA1] are 2.2 ± 0.37 and 2.28 ± 0.37.
In the case of DNAIMLFSPDFTLRNTLKSTSEDS [FAN1], the protein stability index runs as follows: (treatment: DMSO) 4.22 ± 0.34; (treatment: MLN4924 1 uM, 8 h) 4.2 ± 0.5.
In the same order, the values of HCKEKRKTSLLDQLTNTSGTVIGV [NETO1] are 3.37 ± 0.24 and 3.34 ± 0.31.
As for AYRCGSGMQMAEDSKSLKTHQTQP [NET1], the protein stability index came out at 3.94 ± 0.16 (treatment: DMSO) and 3.22 ± 0.25 (treatment: MLN4924 1 uM, 8 h).
In the same order, the values of NGDGAFLHDNHEQMPTEIEFPESR [ZNF649] are 5.31 ± 0.36 and 5.19 ± 0.45.
In the same order, the values of FPHPLWLRDTYKLWVPQPPPRTIK [PWWP2B] are 2.33 ± 0.17 and 2.71 ± 0.33.

The values above are taken from the supplement of paper PMC10567573.
